This passage reports protein stability index results from the supplement of paper PMC10567573.

Sequences and labels used below:
B1: ATE1 (parent)
chain: YGSFHQQYWLDGKIIAVGVIDILP
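Note: lentivirally expressed fusions sorted by FACS into six bins by GFP to DsRed ratio, PSI derived from sequencing read proportions per bin multiplied by bin number.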

Variants of B1 are the subject of this series. The experiment in a line: protein stability index of a GFP-peptide fusion (GPS, HEK-293T) (PSI 1-6); higher = more stable. The settings on record: c terminus: a fixed tail appended.
Take YGSFHQQYWLDGKIIAVGVIFILP [D21F]: the protein stability index was found to be 4.18. Turning to YGSFHQQYWLDGKIIAVGVIYILP [D21Y], the protein stability index stood at 1.97.

Consider YGSFHQQYWLDGKIIGVGVIDILP [A16G], for which the protein stability index turned out to be 2.13.

YGSFHQQYWLDGKIIFVGVIDILP [A16F]: the protein stability index came out at 2.21. In the case of YGSFHQQYWLDGKIIYVGVIDILP [A16Y], the protein stability index was determined as 2.13. Next, YGSFHQQYWLDGKIIRVGVIDILP [A16R]: 3.32; YGSFHQQYWLDGKIIMVGVIDILP [A16M]: 2; YGSFHQQYWLDGKIICVGVIDILP [A16C]: 1.6.

As to YGSFHQQYWLDGKIIPVGVIDILP [A16P], the protein stability index stood at 2.38.

As to YGSFHQQYWLDGKIITVGVIDILP [A16T], the protein stability index stood at 2.7. Next, YGSFHQQYWLDGKIIQVGVIDILP [A16Q]: 3.07. As for YGSFHQQYWLDGKIISVGVIDILP [A16S], the protein stability index was 1.87. Next, YGSFHQQYWLDGKIIVVGVIDILP [A16V]: 3.31. Turning to YGSFHQQYWLDGKIIAVGVIDISP [L23S], the protein stability index was 2.66.

Regarding YGSFHQQYWLDGKIIAVGVIDIIP [L23I], the protein stability index stood at 2.34.

With YGSFHQQYWLDGKIIAVGVIDIEP [L23E], the protein stability index was 1.4. Consider YGSFHQQYWLDGKIIAVGVIDIPP [L23P], for which the protein stability index came out at 2.72. Next, YGSFHQQYWLDGKIIAVGVIDIKP [L23K]: 2.49; YGSFHQQYWLDGKIIAVGVIDITP [L23T]: 2.53; YGSFHQQYWLDGKIIAVGVIDIMP [L23M]: 1.78. Next, YGSFHQQYWLDGKIIAVGVIDIAP [L23A]: 4.34; YGSFHQQYWLDGKIIAVGVIDIGP [L23G]: 2.94; YGSFHQQYWLDGKIIAVGVIDIQP [L23Q]: 3.64. Next, YGSFHQQYWLDGKIIAVGVIDIHP [L23H]: 2; YGSFHQQYWLDGKIIAVGVIDIDP [L23D]: 2.88. Regarding YGSFHQQYWLDGKIIAVGVIDILG [P24G], the protein stability index was found to be 3.18. Next, YGSFHQQYWLDGKIIAVGVIDILI [P24I]: 2.73. Next, YGSFHQQYWLDGKIIAVGVIDILV [P24V]: 3.01. Next, YGSFHQQYWLDGKIIAVGVIDILL [P24L]: 4.25; YGSFHQQYWLDGKIIAVGVIDILK [P24K]: 1.04; YGSFHQQYWLDGKIIAVGVIDILF [P24F]: 1.69.

Turning to YGSFHQQYWLDGKIIAVGVIDILW [P24W], the protein stability index is 3.2.

On to YGSFHQQYWLDGKIIAVGVIDILM [P24M], for which the protein stability index was found to be 2.18. For YGSFHQQYWLDGKIIAVGVIDILA [P24A], the protein stability index turned out to be 2.06. As for YGSFHQQYWLDGKIIAVGVIDILS [P24S], the protein stability index was 1.79. As to YGSFHQQYWLDGKIIAVGVIDILQ [P24Q], the protein stability index worked out at 2.51. Consider YGSFHQQYWLDGKIIAVLVIDILP [G18L], for which the protein stability index came to 1.9.

For YGSFHQQYWLDGKIIAVFVIDILP [G18F], the protein stability index came out at 2.53. As for YGSFHQQYWLDGKIIAVNVIDILP [G18N], the protein stability index was 2.31. Regarding YGSFHQQYWLDGKIIAVKVIDILP [G18K], the protein stability index was 3.6.

Take YGSFHQQYWLDGKIIAVIVIDILP [G18I]: the protein stability index came to 3.47. Next, YGSFHQQYWLDGKIIAVCVIDILP [G18C]: 4.11; YGSFHQQYWLDGKIIAVYVIDILP [G18Y]: 1.96; YGSFHQQYWLDGKIIAVQVIDILP [G18Q]: 3.22. On to YGSFHQQYWLDGKIIAVEVIDILP [G18E], for which the protein stability index was 2.28.

Consider YGSFHQQYWLDGKIIAVRVIDILP [G18R], for which the protein stability index worked out at 3.77. YGSFHQQYWLDGKIIAVSVIDILP [G18S]: the protein stability index turned out to be 3.06. Next, YGSFHQQYWLDGKIIAVAVIDILP [G18A]: 3.13; YGSFHQQYWLDGKIIAVWVIDILP [G18W]: 2.81; YGSFHQQYWLDGKIIAVPVIDILP [G18P]: 2.39. On to YGSFHQQYWLDGKIIAVTVIDILP [G18T], for which the protein stability index worked out at 4.01.

As to YGSFHQQYWLDGKIIAVGVMDILP [I20M], the protein stability index was 2.59. Next, YGSFHQQYWLDGKIIAVGVSDILP [I20S]: 2.38; YGSFHQQYWLDGKIIAVGVPDILP [I20P]: 2.53; YGSFHQQYWLDGKIIAVGVCDILP [I20C]: 1.22.

In the case of YGSFHQQYWLDGKIIAVGVWDILP [I20W], the protein stability index is 1.38. Next, YGSFHQQYWLDGKIIAVGVDDILP [I20D]: 2.41. Next, YGSFHQQYWLDGKIIAVGVYDILP [I20Y]: 1.81. Next, YGSFHQQYWLDGKIIAVGVLDILP [I20L]: 3.46; YGSFHQQYWLDGKIIAVGVRDILP [I20R]: 2.48; YGSFHQQYWLDGKIIAVGVADILP [I20A]: 3.4. Consider YGSFHQQYWLDGKIIAVGVEDILP [I20E], for which the protein stability index worked out at 1.65. Next, YGSFHQQYWLDGKIIAVGVFDILP [I20F]: 4.08. Next, YGSFHQQYWLDGWIIAVGVIDILP [K13W]: 1.94; YGSFHQQYWLDGKIRAVGVIDILP [I15R]: 1.91; YGSFHQQYWLDGKISAVGVIDILP [I15S]: 2.5.

Regarding YGSFHQQYWLDGKIGAVGVIDILP [I15G], the protein stability index was found to be 3.26. For YGSFHQQYWLDGKIKAVGVIDILP [I15K], the protein stability index came out at 1.79.

In the case of YGSFHQQYWLDGKIAAVGVIDILP [I15A], the protein stability index worked out at 2.57. Next, YGSFHQQYWLDGKIFAVGVIDILP [I15F]: 2.83; YGSFHQQYWLDGKITAVGVIDILP [I15T]: 3.23. Next, YGSFHQQYWLDGKIDAVGVIDILP [I15D]: 2.53; YGSFHQQYWLDGKIYAVGVIDILP [I15Y]: 2.45; YGSFHQQYWLDGKIHAVGVIDILP [I15H]: 3.57. For the variant YGSFHQQYWLDGKIMAVGVIDILP [I15M], the protein stability index was 2.51. Next, YGSFHQQYWLDGKIEAVGVIDILP [I15E]: 3.12; YGSFHQQYWLDGKIVAVGVIDILP [I15V]: 4.05.

Turning to YGSFHQQYWLDGKILAVGVIDILP [I15L], the protein stability index was determined as 2.75.

In the case of YGSFHQQYWLDGKINAVGVIDILP [I15N], the protein stability index was determined as 2.59. For the variant YGSFHQQYWLDGKICAVGVIDILP [I15C], the protein stability index worked out at 1.53.

Take YGSFHQQYWLDGKIIAYGVIDILP [V17Y]: the protein stability index was 2.91. Next, YGSFHQQYWLDGKIIAIGVIDILP [V17I]: 1.95; YGSFHQQYWLDGKIIAWGVIDILP [V17W]: 3; YGSFHQQYWLDGKIIATGVIDILP [V17T]: 3.29. Next, YGSFHQQYWLDGKIIAAGVIDILP [V17A]: 3.66. On to YGSFHQQYWLDGKIIALGVIDILP [V17L], for which the protein stability index is 2.42. Take YGSFHQQYWLDGKIIAPGVIDILP [V17P]: the protein stability index came out at 1.66.

Consider YGSFHQQYWLDGKIIADGVIDILP [V17D], for which the protein stability index is 2.26. As for YGSFHQQYWLDGKIIAFGVIDILP [V17F], the protein stability index amounted to 4.21.

Take YGSFHQQYWLDGKIIACGVIDILP [V17C]: the protein stability index stood at 3.27. Next, YGSFHQQYWLDGKIIANGVIDILP [V17N]: 2.82. As for YGSFHQQYWLDGKIIAHGVIDILP [V17H], the protein stability index is 3.08.

In the case of YGSFHQQYWLDGKIIAMGVIDILP [V17M], the protein stability index was 3.42.

YGSFHQQYWLDGKIIARGVIDILP [V17R]: the protein stability index was found to be 3.21.
